For test [1], the target named is recombinant Fasciola hepatica cytosolic Cu/Zn superoxide dismutase (rFhSOD1) (Fasciola hepatica). In words: SEC; Superdex 75 10/300 GL column, 400 uL/min, eluted into 1x PBS; standards conalbumin (76 kDa), carbonic anhydrase (29 kDa), aprotinin (6.5 kDa).
Test [2] has as its target recombinant Fasciola hepatica extracellular Cu/Zn superoxide dismutase (rFhSOD3), signal peptide removed (Fasciola hepatica). The description is as above.

Where “and” joins values, the source holds several entries; their conditions need not be identical. Identical values can stand only once.

In the case of “recombinant Fasciola hepatica cytosolic Cu/Zn superoxide dismutase (rFhSOD1) (enzyme)”, the stoichiometry N in test [1] was 2.
For “recombinant Fasciola hepatica extracellular Cu/Zn superoxide dismutase (rFhSOD3), signal peptide removed (enzyme)”, in test [2], the stoichiometry N was 2 and 4.

Values taken from paper PMC9598480.
